The results in this text go back to patent US20190153089A1 (NUMAB INNOVATION, published 2019).

The labels stand for the following.
B1: recombinant human TNFβ (Peprotech, Cat. No. 300-01B) (ligand, UniProt P01374 35-205, looked up)
chain: LPGVGLTPSAAQTARQHPKMHLAHSTLKPAAHLIGDPSKQNSLLWRANTDRAFLQDGFSLSNNSLLVPTSGIYFVYSQVVFSGKAYSPKATSSPLYLAHEVQLFSSQYPFHVPLLSSQKMVYPGLQEPWLHSMYHGAAFQLTQGDQLSTHTDGIPHLVLSPSTVFFGAFAL
B2: humanized scFv 17-21-A01-sc01 (CDR graft) (scFv)
scFv: MDIQMTQSPSSLSASVGDRVTITCQASESIGNALAWYQQKPGKAPKLLIYSASTLASGVPSRFSGSGSGTDFTLTISSLQPEDFATYYCQSYYYSSSGSYVAFGGGTKLTVLGGGGGSGGGGSGGGGSGGGGSEVQLVESGGGLVQPGGSLRLSCAASGIDFNKYYFMCWVRQAPGKGLEWIGCINTGSGSTYYATWAKGRFTISRDNSKNTVYLQMNSLRAEDTAVYYCARASGSSSVVYIGVYFSLWGQGTLVTVSS
B3: humanized scFv 17-21-A01-sc03 (CDR graft with disulfide bridge, CDR/DS) (scFv)
scFv: B2 scFv with G105C, G178C
notes: A disulfide bridge was introduced between residues VL141-VH51; also called 17-21-A01-sc03 (CDR/DS)

The target of assay [1] is B3. The assay is described as follows: competition ELISA: unlabeled TNFβ against biotinylated TNFα on coated scFv; scFv 17-21-A01-sc03. The procedure: (§1) For this purpose, the scFvs were coated on a 96-well Maxisorp ELISA plate at a concentration of […]. […] To control precision of the response, the dose-response curves were analyzed in duplicate.
For assay [2], the target named is B2. The assay is described as follows: competition ELISA: unlabeled TNFβ or TNFα against biotinylated TNFα on coated scFv. The method, then:
as §1

In assay [3] the target is B3. The assay is described as above. The method, then: as §1
In assay [4] the target is B2. The assay is described as follows: competition ELISA: unlabeled TNFβ against biotinylated TNFα on coated scFv; scFv 17-21-A01-sc01. The procedure: as §1
In assay [5] the target is T1, Rhesus monkey TNFα (R&D Systems, Cat. No. 1070-RM-025/CF) (Rhesus monkey (Macaca mulatta), UniProt P48094 77-233).
T1 construct: also called Rhesus TNFα; Macaca mulatta TNFα
The assay is described as follows: SPR (MASS-1), TNFα immobilized, scFv 45-1.4 nM. The procedure: (§2) In a second step, for the best performing scFvs, Single Injection Cycle Kinetics (SiCK) were measured from a single injection cycle by simultaneously injecting six analyte samples at different concentrations into each of the eight parallel channels in the MASS-1 system. […] The apparent dissociation (kd) and association (kₐ) rate constants and the apparent dissociation equilibrium constant (KD) were calculated with the MASS-1 analysis software (Analyzer, Sierra Sensors) using one-to-one Langmuir binding model and quality of the fits was monitored based on Chi², which is a measure for the quality of the curve fitting. The smaller the value for the Chi² the more accurate is the fitting to the one-to-one Langmuir binding model. For affinity screenings, results were deemed valid if the Chi² was below 10 for the concentration analyzed. In cases where several scFv concentrations were analyzed, results were deemed valid if the average Chi² over all the concentrations tested was below 10.

Assay [6] deals with T2, recombinant human TNFα (Peprotech, Cat. No. 300-01) (human, UniProt P01375 77-233, biotinylated in the inhibition and competition ELISAs; unlabelled elsewhere).
T2 construct: The biotinylated form is kept under this id; also called tumor necrosis factor alpha; TNFαtrimer
The assay is described as follows: SPR (MASS-1), TNFα immobilized, scFv 45-1.4 nM. The method, then: as §2

The target of assay [7] is T3, recombinant Cynomolgus monkey TNFα (Sino Biological, Cat. No. 90018-CNAE) (Cynomolgus monkey (Macaca fascicularis), UniProt P79337 77-233).
T3 construct: also called Cyno TNFα; Cynomolgus TNFα
Nature of the assay: SPR (MASS-1), TNFα immobilized, scFv 45-1.4 nM. The method, then:
as §2

Assay [8] concerns the target T1, Rhesus monkey TNFα (R&D Systems, Cat. …). The assay is described as follows: SPR. The procedure:
as §2

The target in assay [9] is T3, recombinant Cynomolgus monkey TNFα …. The assay is described as follows: SPR. The procedure:
as §2

Assay [10] deals with T1, Rhesus monkey TNFα (R&D Systems, Cat. …). Nature of the assay: cell-based or functional assay.
For assay [11], the target named is T2, recombinant human TNFα (Peprotech, Cat. …). Nature of the assay: cell-based or functional assay.
The target of assay [12] is T3, recombinant Cynomolgus monkey TNFα …. The assay is described as follows: cell-based or functional assay.
Assay [13] concerns the target T2, recombinant human TNFα (Peprotech, Cat. …). The assay is described as follows: inhibition ELISA, biotinylated TNFα (960 pM) preincubated with scFv, binding to coated TNFRII-Fc. From the text: (§3) For the first inhibition ELISA, the extracellular domain of TNFRI fused to the Fc region of human IgG (R&D Systems, Cat. No. 372-RI) was coated on a 96-well Maxisorp ELISA at a concentration of […]. For the second inhibition ELISA, the extracellular domain of TNFRII fused to the Fc region of human IgG (R&D Systems, Cat. No. 726-R2) was coated at a concentration of […]. All subsequent steps were identical for both assays.

Assay [14] addresses B1. Nature of the assay: competition ELISA: unlabeled TNFβ against biotinylated TNFα on coated scFv. The procedure: as §1
Assay [15] deals with T2, recombinant human TNFα (Peprotech, Cat. …). Nature of the assay: inhibition ELISA, biotinylated TNFα (960 pM) preincubated with scFv, binding to coated TNFRI-Fc.
From the text: as §3

Residue numbers refer to the chain shown, from its start.

T1 sequence (P48094 77-233 limits assumed): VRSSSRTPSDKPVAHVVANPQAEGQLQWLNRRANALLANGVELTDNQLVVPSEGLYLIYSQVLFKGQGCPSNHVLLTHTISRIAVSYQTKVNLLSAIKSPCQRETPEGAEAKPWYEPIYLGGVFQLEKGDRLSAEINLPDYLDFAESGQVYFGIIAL
T3 sequence (P79337 77-233 limits assumed): as the sequence (P48094 77-233 limits assumed) above, with L37V counted along it
T2 sequence (P01375 77-233 limits assumed): as the sequence (P48094 77-233 limits assumed) above, with T44R, N72T, L138R counted along it

Consider B1, for which the IC50 in assay [1] and in assay [4] was greater than 1250 µg/mL in each case. Besides, the “Target selectivity, rel. IC50 of TNFβ vs TNFα” value in [2] and in assay [3] was greater than 10000 fold in each case.

In [5], B2 showed a dissociation constant Kd of 2.5 nM, a koff of 0.0019 s⁻¹ and a kon of 760000 M⁻¹ s⁻¹. Besides, in [6], the dissociation constant Kd was 0.21 nM, the dissociation rate constant (koff) came to 0.00014 s⁻¹ and the kon was 660000 M⁻¹ s⁻¹. Moreover, in assay [7], the equilibrium dissociation constant (Kd) is 2.4 nM, the koff is 0.0016 s⁻¹ and the on-rate constant (kon) amounted to 650000 M⁻¹ s⁻¹. The “fold difference in affinity against human TNFα” value in [8] is roughly 5 fold. Besides, the “fold difference in affinity against human TNFα” value in assay [9] was roughly 5 fold. Moreover, the “Species-specificity IC50, L929 assay with Rhesus TNFα” value in [10] turned out to be 0.111 µg/mL. In assay [11], the “Potency, rel. IC50 in L929 assay (IC50 infliximab / IC50 scFv, ng/mL)” value was 9.2 fold; the “Potency, rel. IC90 in L929 assay (IC90 infliximab / IC90 scFv, ng/mL)” value amounted to 12.2 fold; the “Species-specificity IC50, L929 assay with human TNFα” value amounted to 0.0014 µg/mL. The “Species-specificity IC50, L929 assay with Cynomolgus TNFα” value in assay [12] was 0.193 µg/mL. Further, in [13], the IC50 is 0.0541 µg/mL; the “rel. IC50 (IC50 infliximab / IC50 scFv, ng/mL)” value came out at 2.2 fold; the “rel. IC90 (IC90 infliximab / IC90 scFv, ng/mL)” value came out at 0.8 fold. Besides, the binding result in assay [14] was “no binding (tested: 1250 µg/mL)”. In assay [15], the IC50 worked out at 0.0316 µg/mL; the “rel. IC50 (IC50 infliximab / IC50 scFv, ng/mL)” value turned out to be 2.9 fold; the “rel. IC90 (IC90 infliximab / IC90 scFv, ng/mL)” value amounted to 2 fold.

Regarding B3, in assay [6], the equilibrium dissociation constant (Kd) is 0.27 nM, the koff stood at 0.00011 s⁻¹ and the on-rate constant (kon) is 400000 M⁻¹ s⁻¹. In assay [10], the “Species-specificity IC50, L929 assay with Rhesus TNFα” value was 0.0542 µg/mL. For the same molecule, in assay [11], the “Potency, rel. IC50 in L929 assay (IC50 infliximab / IC50 scFv, ng/mL)” value was 6.5 fold; the “Potency, rel. IC90 in L929 assay (IC90 infliximab / IC90 scFv, ng/mL)” value was determined as 6.4 fold; the “Species-specificity IC50, L929 assay with human TNFα” value came out at 0.0012 µg/mL. Besides, the “Species-specificity IC50, L929 assay with Cynomolgus TNFα” value in [12] came to 0.0506 µg/mL. Besides, in assay [13], the IC50 was found to be 0.0467 µg/mL; the “rel. IC50 (IC50 infliximab / IC50 scFv, ng/mL)” value worked out at 2.6 fold; the “rel. IC90 (IC90 infliximab / IC90 scFv, ng/mL)” value is 0.8 fold. For the same molecule, in [14], the binding result is “no binding (tested: 1250 µg/mL)”. In [15], the IC50 was 0.0502 µg/mL; the “rel. IC50 (IC50 infliximab / IC50 scFv, ng/mL)” value came out at 1.8 fold; the “rel. IC90 (IC90 infliximab / IC90 scFv, ng/mL)” value worked out at 1.8 fold.
